Assays:
[1] = biological target: T1, CD200 receptor (CD200R) on primary mouse cells, isoform not stated (mouse) (UniProt Q9ES57); assay: cell-based or functional assay
T1 sequence: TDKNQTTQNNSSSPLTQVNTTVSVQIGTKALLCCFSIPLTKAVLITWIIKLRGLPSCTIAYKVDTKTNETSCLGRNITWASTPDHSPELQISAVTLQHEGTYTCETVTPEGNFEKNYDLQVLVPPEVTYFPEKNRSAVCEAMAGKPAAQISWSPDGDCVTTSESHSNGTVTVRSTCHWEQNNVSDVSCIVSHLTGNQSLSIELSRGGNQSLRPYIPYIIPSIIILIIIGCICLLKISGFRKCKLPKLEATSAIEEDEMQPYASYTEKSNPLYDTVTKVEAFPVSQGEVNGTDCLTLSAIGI

murine CD200R2a = biological target: T2, murine CD200R2a (murine, UniProt Q6XJV6 25-249); assay: FACS, FITC-CD200Fc on COS cells transiently transfected with CD200R isoform cDNA
T2 sequence: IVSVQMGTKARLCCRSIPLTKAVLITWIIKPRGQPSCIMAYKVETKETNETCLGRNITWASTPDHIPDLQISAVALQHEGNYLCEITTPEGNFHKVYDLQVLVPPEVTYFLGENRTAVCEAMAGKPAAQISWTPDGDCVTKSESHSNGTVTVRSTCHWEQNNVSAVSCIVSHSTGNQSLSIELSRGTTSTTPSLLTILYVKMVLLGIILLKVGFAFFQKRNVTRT
Description: (§1) In order to assess whether the various CD200R isoforms described could all serve as counter-igands for CD200, an immunoadhesin (CD200Fc) incorporating the extracellular domain of CD200 linked to a murine IgG2a Fc region as described (51) was used. CD200Fc was coupled to FITC and the inventors then examined by FACS analysis binding of FITC-labeled CD200Fc to COS cells transiently transfected with pBK vectors encoding cDNAs for the various CD200R isoforms. As control the inventors examined binding to COS cells transduced with empty pBK vectors. COS cells expressing the different CD200R isoforms all bound FITC-CD200Fc.

murine CD200R3a = biological target: T3, murine CD200R3a (murine, UniProt Q5UKY4 26-272); assay: as above
T3 sequence: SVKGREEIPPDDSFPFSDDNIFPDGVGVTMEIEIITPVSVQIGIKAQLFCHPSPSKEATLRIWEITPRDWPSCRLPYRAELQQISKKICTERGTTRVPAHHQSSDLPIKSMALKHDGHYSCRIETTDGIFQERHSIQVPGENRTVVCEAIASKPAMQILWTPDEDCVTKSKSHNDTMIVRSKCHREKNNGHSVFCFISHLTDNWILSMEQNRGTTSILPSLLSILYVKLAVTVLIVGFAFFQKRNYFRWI
Description: as §1

B1: mouse CD200 on dendritic cells (ligand, UniProt O54901 31-278, looked up)
chain: QVEVVTQDERKALHTTASLRCSLKTSQEPLIVTWQKKKAVSPENMVTYSKTHGVVIQPAYKDRINVTELGLWNSSITFWNTTLEDEGCYMCLFNTFGSQKVSGTACLTLYVQPIVHLHYNYFEDHLNITCSATARPAPAISWKGTGTGIENSTESHFHSNGTTSVTSILRVKDPKTQVGKEVICQVLYLGNVIDYKQSLDKGFWFSVPLLLSIVSLVILLVLISILLYWKRHRNQERGESSQGMQRMK
For B1, the IFNγ in MLC at 40 hrs; CD200R+ cells + CD200+ DC [1] was 0.145 ng/mL, the IFNγ in MLC; CD200R+ cells + CD200+ DC, no mAb [1] was 0.17 ng/mL and the IL-2 in MLC at 40 hrs; CD200R+ cells + CD200+ DC [1] was 0.16 ng/mL. For the same binder, the IL-2 in MLC; CD200R+ cells + CD200+ DC, no mAb [1] was 0.165 ng/mL, the IL-4 in MLC at 40 hrs; CD200R+ cells + CD200+ DC [1] was 0.255 ng/mL and the IL-10 in MLC at 40 hrs; CD200R+ cells + CD200+ DC [1] was 0.225 ng/mL.

B2: CD200Fc immunoadhesin (extracellular domain of CD200 linked to a murine IgG2a Fc region) (Fc fusion, mouse, UniProt O54901 31-232, looked up)
chain: QVEVVTQDERKALHTTASLRCSLKTSQEPLIVTWQKKKAVSPENMVTYSKTHGVVIQPAYKDRINVTELGLWNSSITFWNTTLEDEGCYMCLFNTFGSQKVSGTACLTLYVQPIVHLHYNYFEDHLNITCSATARPAPAISWKGTGTGIENSTESHFHSNGTTSVTSILRVKDPKTQVGKEVICQVLYLGNVIDYKQSLDKG
modifications: FITC-labelled in the binding assays
notes: extracellular domain; Made in a baculovirus system in Sf insect cells; also called FITC-CD200Fc; FITC-CD200:Fc; not shown: murine IgG2a Fc region; the ch
B2: binds (murine CD200R2a); binds (murine CD200R3a).

From patent US20080267967A1 (TRILLIUM THERAPEUTICS, published 2008)
